Experimental data published in patent US20180305451A1.

target: cyno HIDE1 (cyno); assay: FACS, Geo mean ratio of HEK293 cells over-expressing cyno HIDE1 to HEK293 empty vector, antibody 10 ug/ml
Sequence (chain, as listed by the source limits assumed, form in doubt): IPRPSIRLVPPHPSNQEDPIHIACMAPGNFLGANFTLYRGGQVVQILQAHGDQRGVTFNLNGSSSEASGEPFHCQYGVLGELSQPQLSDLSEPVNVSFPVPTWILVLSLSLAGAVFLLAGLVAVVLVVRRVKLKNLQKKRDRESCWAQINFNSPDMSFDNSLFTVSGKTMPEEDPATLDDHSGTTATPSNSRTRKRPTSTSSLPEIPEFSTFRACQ

Binder | rMFI OX/EV, 10ug/ml, cHIDE1 (CR)
αhHIDE1_AbD25754_hIgG1_Ser_mAb (antibody, V domains shown) VH: QVQLVQSGAEVKKPGASVKVSCKASGYTFSGYGMHWVRQAPGQGLEWMGIISPSNGNTNYAQKFQGRVTMTRDTSISTAYMELSRLRSEDTAVYYCAREVYYGLDVWGQGTLVTVSS VL: DIQMTQSPSSLSASVGDRVTITCRASQSISSWLNWYQQKPGKAPQLLIYGASSLQSGVPSRFSGSGSGTDFTLTISSLQPEDFATYYCQQYISIPITFGQGTKVEIK | 353
αhHIDE1_AbD25755_hIgG1_Ser_mAb (antibody, V domains shown) VH: QVQLVQSGAEVKKPGSSVKVSCKASGGTFSSYAISWVRQAPGQGLEWMGGIVPKFGTAYYAQKFQGRVTITADESTSTAYMELSSLRSEDTAVYYCARENLVYSAIAIWGQGTLVTVSS VL: DIQMTQSPSSLSASVGDRVTITCRASQDISNWLNWYQQKPGKAPKLLIYGASSLQSGVPSRFSGSGSGTDFTLTISSLQPEDFATYYCQQVTSTPFTFGQGTKVEIK | 328
αhHIDE1_AbD25760_hIgG1_Ser_mAb (antibody, V domains shown) VH: QVQLVQSGAEVKKPGSSVKVSCKASGGTFSDYAINWVRQAPGQGLEWMGGIIPNFGTANYAQKFQGRVTITADESTSTAYMELSSLRSEDTAVYYCARGMRSLGGLSYYFDLWGQGTLVTVSS VL: DIQMTQSPSSLSASVGDRVTITCRASQSINSYLNWYQQKPGKAPKLLIYAASSLQSGVPSRFSGSGSGTDFTLTISSLQPEDFATYYCQQYIHYPITFGQGTKVEIK | 132
